In the nanobody polyreactivity screen of Harvey et al. (2022):

Test: yeast display, Sf9 membrane polyspecificity reagent, FACS + sequencing; frameworks hold sequencing errors
Summary of the method: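 Genes from sorted yeast were amplified by colony PCR, read by MiSeq 2 × 250 sequencing and filtered on CDR length. These cells carried a synthetic nanobody library in Saccharomyces cerevisiae BJ5465 and were sorted by FACS into low and high (top ~1%) gates on anti-HA and streptavidin fluorescence. Polyreactivity is labelled according to the gate of origin.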

Sequence	polyreactivity (PSR sort gate)
QVQLQESGGGLMQAGGSQRLSCAASGSISYYSDMGWYPQAPGKEREFVAGIGYGTTTNYADSVKGRFTTSRDNAKNTVYMQMISMKPEDTAVYYCAAYQGNGYEFYYWGQGTQVTVRS	low polyreactivity
QVQLVESGGGLVQAGGSLRLSCAASGIIFANNDMGWSRQAPGKERELVAVITFSDGSTYYADSVKGRFTISRDNAKNTVYLQMNSLKPEDTAVYYCATRIRSYYYWGQGTQVTVSS	high polyreactivity
QVQLVESGGGLVQAGGSLRLSCAASGSPFSSYVMGWYRQAPGTERELVAAISSIGGSTYSADSVKGRFTISRDNAKNTVFLQLNSLKPEDTAVYYCNALYDVWITLHTYTSSDYWGEGTQVTVSS	low polyreactivity
QVQLVESGGGLVQAGGSLRLSCAASGRTFYINAMGWYRQAPGKERELVATITRSGGSTYYADSVKGRFTISRDNAKNTVYLQMNSLKPEDTAVYYCAAGGGYYRYRDYDYWGQGTQVTVSS	high polyreactivity
PVQLVESGGGLVQAGGSLPLSCAASGRTFPFNAMRWYRQAPGKERELVATINYRGGSTYYADSVKGRFTISRDNAKNTVYLQMNSLKPEDTAVYYCAAGKIGRYHYDYWGQGTQVTVSS	high polyreactivity
QVQLVESGGGLVQAGGSLRLSCAATRSIFSLYTMGWYRQAPGKERELVAVISSAGRTYYADSVKGRFTISRDNGKNTVYLQMNSLKPEDTAVYYCARLTGQRTQTRSDYWGQGTQVTVSS	high polyreactivity
QVQLVESGGGLVQAGGSLRLSCAASGRTLNRYAMGWYRQAPGKERELVAAIRWRGASTYYADSVKGRFTISRDNAKNTVYLQMNSLKPEDTAVYYCAKRFFASTPNFDYWGQGTQVTVSS	high polyreactivity
QVQLVESGGGLVQAGGSLRLSCAASGSTFYHYAMGWYRQAPGKERELVAAISTSGGRTYDADSVKGRFTISRDNAKNNVYLQMNSLKPEDTAVYYCAARPGSWYPSVPSYNYWGQGTQVTVSS	low polyreactivity
QDQLVESGGGLVQAAGSLRLTCAASGLTFAYYAMGWNRQAPGKERELVAAISWNGGRTYYADSVKGRFTISRDNAKNTVYLQMNSLKPEDTAVDYCAAEVTSSFYWGQGSQVTVSS	high polyreactivity
QVQLVESGGGLVQAGGSLRLSCAASGRTLTRYTMGWYRQAPGKERELVATISRSGGNTHYADSVKGRFTISRDNAKNTVYLQMNSLKPEDTAVYYCNAVRYALYGYDYWGQGTQVTVSS	high polyreactivity
QVQLVESWGGLVQAGGSLRLSCAASGRIFWKYTMGWYRQAPGKERELVAAIRSGGGSTDYADSVKGRFTISRDNAKNSVYLQMNRLIPEDTAGYYCAAEPSQRYPLSGYVYWGQGTQVTVSS	low polyreactivity
QVQLVESGGGLVQAGGSLRLSCAASGSIFKKYAMGWYRQAPGKERELVAAITSGGSTYYADSVKGRFTISRDNAKNTVYLQMNSLKPEDTAVYYCATYRKGSLGSWGQGTQVTVSS	high polyreactivity
QVQLVESGGGLVQAGGSLRLSCAASGFIFLQYPMGWYRQAPGKERDLVAAITSGGGTNYADSVKGRFTISRDNAKNTVYLQMNSLKPEDTAVYYCAARTWPWVLGATQDDYWGQGTQVTVSS	low polyreactivity
QVQLVESGGGLVQAGGSLRLSCAASGSTFYYYAMGWYRQAPGKERELVAAITNVTSTYYADSVKGRFTISRDNEKNTVYLMMNSLKPEDTAVYYCAAPDHCSEVTYDYWGQGTQVCVSS	low polyreactivity
QVQRVESGGGLVQAGGSLRLSCAASGLILVPNTMGWYRQAPGKVRELVAAISYSGGGTYYADAVKGRFTISRDNAKNTVYLQMNSLKPEETAVYDCAAYVKRESAPYGYWGQGTQVTVSS	low polyreactivity
QVQLVESGGGLVQAGGSLRLSCAASGSIFYYYVMGWYRQAPGKERELVAAITYSGGRTYYADSVKGRFTISRDNAKYTVYLQMNSLKPEDTAVYYCNVVIYYFNSRSVFYDYDYWGQGTQVTVSS	high polyreactivity
QVQLVESGGGLFQAGGSLRLSCAASGRTFSHNGMGWYRQAPGKERELVATINRGGNTYYADSVKGRFTISRDNAKNTVYLQMNSLKPEDTAVYYCAARRSFLFDEGNYWGQGTQVTVSS	low polyreactivity
QVQLVESGGGLVQAGGSLRLSCAASGFTFEGYAMGWYRQAPGKERELVAAISSNGGRTYYADSVKGRFTISRDNAKNTVYLQMNSLKPEDTAVYYCNARRAYSGPDYDYYHGRRYDYWGQGTQVTVSS	low polyreactivity
QVQLVESGGGLVQAGRSHRLTCAASGSTDSNAMGWYRQAPGKERELVAAISGTGSRTYYADSVKGRFTISRDNAKNSVYLEMNSLKPEDTAVYYCAASPDVSFRRFSLVVSGDYWGQGNQVTVSS	high polyreactivity
QVQLVESGGGLVQAGGSLRIICAASGRTFATYAMGWYRQAPGKERELVAVISRSGGRTYYADSVKGRFTISRDNAKNTVYLQMNSLKPEDTAVYYCAASYGPSTWTSSYYYWGQGTQVTVSS	high polyreactivity
QVQLVESGGGLVQAGGSLRLSCAASGRIFGYYAMGWYRQAPGKERELVAAITSGGRTYYADSVKGRFTISRDNAKNTVYLHMNSLKPEDTAVYYCAAVRALRKVRDYYYWGQGTQVTVSS	high polyreactivity
QVQLVESGGGLVQAGGSLRLSCAASGITFYHYAMGWYRQAPGKERELVAAISVSGGRTYYADSVKGRFTISRDNAKITVYLQMNSLKPEDTAVYYCAKVSQVRGFYYWGQGTQVTVSS	high polyreactivity

Sequence	polyreactivity (PSR sort gate)
QVQLVESGGGLVQAGGSLRLSCAASGLTISWNAMGWYRQAPGKERELVAAISSRGGSTYYADSVKGRFKISRDNAKNTVYLQMNSLKPEDTAVYYCAAEGYTYYPVYSTRMYYWGQGTQVTVSS	low polyreactivity
QVQLVESGGGLVQAGGSLRLSCAASGRTFGGYVMGWYRQAPGKERELVATITYSGGSTHYADSVKGRFTISRDNAKNTVYLQINSLKPEDTAVYYCARRRSYRYPSEYNYWGQGTQVTVSS	high polyreactivity
QVQLVESGGGLVQAGGRLRLSCAASGTFRRNAMGWYRQAPGKERELVAAIRWSGGITYYADSVKGRFTISRDNAKNTVYLQMNSLKPEDTADYYCSGQRYYGFGKTYYYWGQGTQVTVSS	high polyreactivity
QVQLVESVGGLVQAGGSLRLSCAASGRTFDYYALGWYRQAPGKERELVAAISSSGGRTYYADSVKGRFTISRDNAKNTVYLQMNSLKPEDTAVYYCNAVVSRNYEYWGQGTQVTVSS	high polyreactivity
QVKLVDSGGGLVQAGGSLRLSCAASGSIFAGYAMGWYRQEPGKVRELVAAINASGGSTYYADSVKGRFTISRDNAKNTVYLQMNSLKPEDTAVYYCNRVYKRYYIGGYDYWGQGTQLTVSS	high polyreactivity
QVQLVESGGGLVQAGGSLRLSCAASGRTFWTYAMGWYRLAPGKERELVASISKSGGSTYADSVKGRFTITRDNAKNTVYLQMNSLKPEDTAVYYCATDLSYDVWFFGPDYDYWGQGTQVTVSS	low polyreactivity
QVQLVESGGGLVQAGGSLRLSCAASGLIFGYYGMGWYRQAPGKERELVAVITDDDSTTYADSVKGRFTISRDNAKNTVYLLMNSLKPEDTAVYYCNADNLLGRFDSWGQGTQVTVSS	low polyreactivity
QVQLVESGGGLLKAGGSLRLTCAASGRIFSSYDMGWYRQAPGKERELVAAISNSGGNTYYADSVKGRFTISRDNAKNTVYLQMNSLKPEDTAVYYCAAVAFWAIFDFYWYYPYEYDYWGQGTQVTVSS	high polyreactivity
QVQLVESGGGLVQAGGSLRLSCAASGSTFGYYAMGWYRQAPGKEREVVAALDSSGDTYYADSVKGRFTISRDNAKNTVYFQMNSLKPEDTAVYYCAADFWVSSYWGYGYWGQGTQVTVSS	high polyreactivity
QDQLVESGGGLVQAGGSLRLICDASGSILWHYAMGWYRQAPGTEREWVAAITQRGGSTYYADSEKGRFTISRDTAKYNVYLQMNSLKPEDTAVYYFNTYPTRTYPSYYYWRQGTQVTVSS	high polyreactivity
QVQLVESGGALVQAGGSLRLSCAASGRTFNYYAKGWSRQAPGKERELVAAITNGVSTKYADSVKGRFTISRDNAKNTVYLQMNSLKPEDTAVYYCAAQRLYGYRLYNYWGQGTQVTVSS	high polyreactivity
QVQLVESGGGLFKAGGSLRLSCAASGRTFRGYTMGWYRQAPGKERELVAAITSGTRTNYADSVKGRFTISRDNAKNTVYLQMNSLKPEYTAVYYGAARDYIRPRYRPYDYWGHGTQVTVSS	high polyreactivity
QVQLVSSGGRLVQSGGSLRLSCAASGRTFYPYAMGWYRQAPGKERELVAGIRNSGTSTYYADSVKGRFTISRDNAKNTVYLQMNSLKPEVTAVYYCNARGYRNRGYGYDSWGQGTQVTVSS	high polyreactivity
QVQLVESGGGLVQAGGSLRLSCAASGFTFIQYDMGWYRQAPGKERELVAAISSSGGSTYYADSVNGRFTISRDNAKNTFYLQMNSLKPEDTGVYYCAADPWVRLEYDYWGQGTQVTVSS	low polyreactivity
QVQLVESGGGLVQAGGSLRLSCAASGFIFRWYAMGWYRQAPGKERELVASIDSSGTRTYYADSVKGRFTISRDNAKNTVYLQMNSLKPEDTAVYYCNAEPSSLGETDYDYWGQGTQVTVSS	low polyreactivity
QVQLVESGGGLVQAGGSLRLSCAASGSTFSVYAMGWYRQAPGKERELVAAITWRGGTTYYADSVKGRFTISRDYAKNTVYLQMNSLKPEDTAVYYCNADWWRTLESDYWGQGTQVTVSS	low polyreactivity
QVHLEESVGGLLQAGGSLRLSCVASGSTFGAYAMGWYRQAPGKERELVAAINTGDSTNYADSVKGRFTISRDNAKNTVYFQMNSLKPVDTAVYYCAAVSKHSGDELDYWGQGTQVTVSS	high polyreactivity
QVQLVESGGGLVQAGGSLRLSCAASGSIFYWNAMGWYRQAPGKERELVAAIDYSDGSTYYADSVKGRFTISRDNAKNTVYLQMNSLKPEDTAVYYCAAEWYYDLYDYWGQGTQVTVSS	high polyreactivity
QVQLVESGGGLVHAGGSLRLSCAASGRTFLLYAMGWYRQAPGKERELVARITGRGGRTYYADSVKGRFTISRDNAKNTVYLQMNSLKPEDTAVYYCNAKGYQGQWERYDYWGQGTQVTVSS	high polyreactivity
QVQLVESGGGLVQAGGSLRLSCAASGLTFGLNALGWYRQAPGKERELVAAITWSGGSTYYADSVKGRFTISRDNAKNTVYLQMNSLKPEDTAVYYCATDNWSVNGGYNYWGQGTQVTVSS	low polyreactivity
QVQLVESGGGLVQAGGSLRLSCAASGRIFTIYVMGWYRPAPGKERELVATITYSSGSTSYADSVKGRFTISRDNAKNTVYLQMNSLKPEDTAVYYCATDIHSVHNNRDKHDYDYWGQGTQVSVSS	low polyreactivity
